B1: MPH12 VH-D62E / MPH12 VL-D25S (antibody, V domains shown)
VH: QVQLVESGGGLVKPGGSLRLSCVASGFTFSGFYMKWIRQAPGKGLEWVSSISASGSYTNYAESVEGRFTVSRDNAKNSLFLLMSSLRAEDTAVYYCARGDSYCGASACHGEFFHKWGQGTLVTVSS
VL: QSVLTQPPSVSGAPGQRVTISCTGSSSNIGADFDVHWYQQLPGTAPKLLIYGNINRPSGVPDRFSGSRSGTSAFLAITRLQAEDEADYYCQSYDRSLHYVFGAGTKVTVL
notes: MPH12 variant; VH and VL only
B2: MPH12 VH-D62E / MPH12 VL-D25E (antibody, V domains shown)
VH: QVQLVESGGGLVKPGGSLRLSCVASGFTFSGFYMKWIRQAPGKGLEWVSSISASGSYTNYAESVEGRFTVSRDNAKNSLFLLMSSLRAEDTAVYYCARGDSYCGASACHGEFFHKWGQGTLVTVSS
VL: QSVLTQPPSVSGAPGQRVTISCTGSESNIGADFDVHWYQQLPGTAPKLLIYGNINRPSGVPDRFSGSRSGTSAFLAITRLQAEDEADYYCQSYDRSLHYVFGAGTKVTVL
notes: MPH12 variant; VH and VL only
B3: MPH12 VH-S63A / MPH12 VL-D25S (antibody, V domains shown)
VH: QVQLVESGGGLVKPGGSLRLSCVASGFTFSGFYMKWIRQAPGKGLEWVSSISASGSYTNYADAVEGRFTVSRDNAKNSLFLLMSSLRAEDTAVYYCARGDSYCGASACHGEFFHKWGQGTLVTVSS
VL: QSVLTQPPSVSGAPGQRVTISCTGSSSNIGADFDVHWYQQLPGTAPKLLIYGNINRPSGVPDRFSGSRSGTSAFLAITRLQAEDEADYYCQSYDRSLHYVFGAGTKVTVL
notes: MPH12 variant; VH and VL only
B4: MPH12 VH-S63A / MPH12 VL-D25E (antibody, V domains shown)
VH: QVQLVESGGGLVKPGGSLRLSCVASGFTFSGFYMKWIRQAPGKGLEWVSSISASGSYTNYADAVEGRFTVSRDNAKNSLFLLMSSLRAEDTAVYYCARGDSYCGASACHGEFFHKWGQGTLVTVSS
VL: QSVLTQPPSVSGAPGQRVTISCTGSESNIGADFDVHWYQQLPGTAPKLLIYGNINRPSGVPDRFSGSRSGTSAFLAITRLQAEDEADYYCQSYDRSLHYVFGAGTKVTVL
notes: MPH12 variant; VH and VL only
B5: MPH12 VH-FRGL-D62E / MPH12 VL (antibody, V domains shown)
VH: QVQLVESGGGLVKPGGSLRLSCAASGFTFSGFYMKWIRQAPGKGLEWVSSISASGSYTNYAESVEGRFTISRDNAKNSLYLQMNSLRAEDTAVYYCARGDSYCGASACHGEFFHKWGQGTLVTVSS
VL: QSVLTQPPSVSGAPGQRVTISCTGSDSNIGADFDVHWYQQLPGTAPKLLIYGNINRPSGVPDRFSGSRSGTSAFLAITRLQAEDEADYYCQSYDRSLHYVFGAGTKVTVL
notes: MPH12 variant; VH and VL only
B6: MPH12 VH-FRGL-S63A / MPH12 VL (antibody, V domains shown)
VH: QVQLVESGGGLVKPGGSLRLSCAASGFTFSGFYMKWIRQAPGKGLEWVSSISASGSYTNYADAVEGRFTISRDNAKNSLYLQMNSLRAEDTAVYYCARGDSYCGASACHGEFFHKWGQGTLVTVSS
VL: QSVLTQPPSVSGAPGQRVTISCTGSDSNIGADFDVHWYQQLPGTAPKLLIYGNINRPSGVPDRFSGSRSGTSAFLAITRLQAEDEADYYCQSYDRSLHYVFGAGTKVTVL
notes: MPH12 variant; VH and VL only
B7: MPH12 VH / MPH12 VL-S26A (antibody, V domains shown)
VH: QVQLVESGGGLVKPGGSLRLSCVASGFTFSGFYMKWIRQAPGKGLEWVSSISASGSYTNYADSVEGRFTVSRDNAKNSLFLLMSSLRAEDTAVYYCARGDSYCGASACHGEFFHKWGQGTLVTVSS
VL: QSVLTQPPSVSGAPGQRVTISCTGSDANIGADFDVHWYQQLPGTAPKLLIYGNINRPSGVPDRFSGSRSGTSAFLAITRLQAEDEADYYCQSYDRSLHYVFGAGTKVTVL
notes: MPH12 variant; VH and VL only
B8: MPH12 VH / MPH12 VL-FRGL (antibody, V domains shown)
VH: QVQLVESGGGLVKPGGSLRLSCVASGFTFSGFYMKWIRQAPGKGLEWVSSISASGSYTNYADSVEGRFTVSRDNAKNSLFLLMSSLRAEDTAVYYCARGDSYCGASACHGEFFHKWGQGTLVTVSS
VL: QSVLTQPPSVSGAPGQRVTISCTGSDSNIGADFDVHWYQQLPGTAPKLLIYGNINRPSGVPDRFSGSKSGTSASLAITGLQAEDEADYYCQSYDRSLHYVFGTGTKVTVL
notes: MPH12 variant; VH and VL only
B9: MPH12 VH-S63A / MPH12 VL (antibody, V domains shown)
VH: QVQLVESGGGLVKPGGSLRLSCVASGFTFSGFYMKWIRQAPGKGLEWVSSISASGSYTNYADAVEGRFTVSRDNAKNSLFLLMSSLRAEDTAVYYCARGDSYCGASACHGEFFHKWGQGTLVTVSS
VL: QSVLTQPPSVSGAPGQRVTISCTGSDSNIGADFDVHWYQQLPGTAPKLLIYGNINRPSGVPDRFSGSRSGTSAFLAITRLQAEDEADYYCQSYDRSLHYVFGAGTKVTVL
notes: MPH12 variant; VH and VL only
B10: MPH12 VH-S63A / MPH12 VL-S26A (antibody, V domains shown)
VH: QVQLVESGGGLVKPGGSLRLSCVASGFTFSGFYMKWIRQAPGKGLEWVSSISASGSYTNYADAVEGRFTVSRDNAKNSLFLLMSSLRAEDTAVYYCARGDSYCGASACHGEFFHKWGQGTLVTVSS
VL: QSVLTQPPSVSGAPGQRVTISCTGSDANIGADFDVHWYQQLPGTAPKLLIYGNINRPSGVPDRFSGSRSGTSAFLAITRLQAEDEADYYCQSYDRSLHYVFGAGTKVTVL
notes: MPH12 variant; VH and VL only
B11: MPH12 VH-S63A / MPH12 VL-FRGL (antibody, V domains shown)
VH: QVQLVESGGGLVKPGGSLRLSCVASGFTFSGFYMKWIRQAPGKGLEWVSSISASGSYTNYADAVEGRFTVSRDNAKNSLFLLMSSLRAEDTAVYYCARGDSYCGASACHGEFFHKWGQGTLVTVSS
VL: QSVLTQPPSVSGAPGQRVTISCTGSDSNIGADFDVHWYQQLPGTAPKLLIYGNINRPSGVPDRFSGSKSGTSASLAITGLQAEDEADYYCQSYDRSLHYVFGTGTKVTVL
notes: MPH12 variant; VH and VL only
B12: MPH12 VH-FRGL-D62E / MPH12 VL-D25E (antibody, V domains shown)
VH: QVQLVESGGGLVKPGGSLRLSCAASGFTFSGFYMKWIRQAPGKGLEWVSSISASGSYTNYAESVEGRFTISRDNAKNSLYLQMNSLRAEDTAVYYCARGDSYCGASACHGEFFHKWGQGTLVTVSS
VL: QSVLTQPPSVSGAPGQRVTISCTGSESNIGADFDVHWYQQLPGTAPKLLIYGNINRPSGVPDRFSGSRSGTSAFLAITRLQAEDEADYYCQSYDRSLHYVFGAGTKVTVL
notes: MPH12 variant; VH and VL only
B13: MPH12 VH-FRGL-S63A / MPH12 VL-FRGL (antibody, V domains shown)
VH: QVQLVESGGGLVKPGGSLRLSCAASGFTFSGFYMKWIRQAPGKGLEWVSSISASGSYTNYADAVEGRFTISRDNAKNSLYLQMNSLRAEDTAVYYCARGDSYCGASACHGEFFHKWGQGTLVTVSS
VL: QSVLTQPPSVSGAPGQRVTISCTGSDSNIGADFDVHWYQQLPGTAPKLLIYGNINRPSGVPDRFSGSKSGTSASLAITGLQAEDEADYYCQSYDRSLHYVFGTGTKVTVL
notes: MPH12 variant; VH and VL only
B14: MPH12 VH-FRGL-D62E / MPH12 VL-FRGL (antibody, V domains shown)
VH: QVQLVESGGGLVKPGGSLRLSCAASGFTFSGFYMKWIRQAPGKGLEWVSSISASGSYTNYAESVEGRFTISRDNAKNSLYLQMNSLRAEDTAVYYCARGDSYCGASACHGEFFHKWGQGTLVTVSS
VL: QSVLTQPPSVSGAPGQRVTISCTGSDSNIGADFDVHWYQQLPGTAPKLLIYGNINRPSGVPDRFSGSKSGTSASLAITGLQAEDEADYYCQSYDRSLHYVFGTGTKVTVL
notes: MPH12 variant; VH and VL only
B15: MPH12 VH-FRGL-S63A / MPH12 VL-D25E (antibody, V domains shown)
VH: QVQLVESGGGLVKPGGSLRLSCAASGFTFSGFYMKWIRQAPGKGLEWVSSISASGSYTNYADAVEGRFTISRDNAKNSLYLQMNSLRAEDTAVYYCARGDSYCGASACHGEFFHKWGQGTLVTVSS
VL: QSVLTQPPSVSGAPGQRVTISCTGSESNIGADFDVHWYQQLPGTAPKLLIYGNINRPSGVPDRFSGSRSGTSAFLAITRLQAEDEADYYCQSYDRSLHYVFGAGTKVTVL
notes: MPH12 variant; VH and VL only
B16: MPH12 VH / MPH12 VL-D25E (antibody, V domains shown)
VH: QVQLVESGGGLVKPGGSLRLSCVASGFTFSGFYMKWIRQAPGKGLEWVSSISASGSYTNYADSVEGRFTVSRDNAKNSLFLLMSSLRAEDTAVYYCARGDSYCGASACHGEFFHKWGQGTLVTVSS
VL: QSVLTQPPSVSGAPGQRVTISCTGSESNIGADFDVHWYQQLPGTAPKLLIYGNINRPSGVPDRFSGSRSGTSAFLAITRLQAEDEADYYCQSYDRSLHYVFGAGTKVTVL
notes: MPH12 variant; VH and VL only
B17: MPH12 VH / MPH12 VL-D25S (antibody, V domains shown)
VH: QVQLVESGGGLVKPGGSLRLSCVASGFTFSGFYMKWIRQAPGKGLEWVSSISASGSYTNYADSVEGRFTVSRDNAKNSLFLLMSSLRAEDTAVYYCARGDSYCGASACHGEFFHKWGQGTLVTVSS
VL: QSVLTQPPSVSGAPGQRVTISCTGSSSNIGADFDVHWYQQLPGTAPKLLIYGNINRPSGVPDRFSGSRSGTSAFLAITRLQAEDEADYYCQSYDRSLHYVFGAGTKVTVL
notes: MPH12 variant; VH and VL only
B18: MPH12 VH-D62E / MPH12 VL-S26A (antibody, V domains shown)
VH: QVQLVESGGGLVKPGGSLRLSCVASGFTFSGFYMKWIRQAPGKGLEWVSSISASGSYTNYAESVEGRFTVSRDNAKNSLFLLMSSLRAEDTAVYYCARGDSYCGASACHGEFFHKWGQGTLVTVSS
VL: QSVLTQPPSVSGAPGQRVTISCTGSDANIGADFDVHWYQQLPGTAPKLLIYGNINRPSGVPDRFSGSRSGTSAFLAITRLQAEDEADYYCQSYDRSLHYVFGAGTKVTVL
notes: MPH12 variant; VH and VL only
B19: MPH12 VH-D62E / MPH12 VL (antibody, V domains shown)
VH: QVQLVESGGGLVKPGGSLRLSCVASGFTFSGFYMKWIRQAPGKGLEWVSSISASGSYTNYAESVEGRFTVSRDNAKNSLFLLMSSLRAEDTAVYYCARGDSYCGASACHGEFFHKWGQGTLVTVSS
VL: QSVLTQPPSVSGAPGQRVTISCTGSDSNIGADFDVHWYQQLPGTAPKLLIYGNINRPSGVPDRFSGSRSGTSAFLAITRLQAEDEADYYCQSYDRSLHYVFGAGTKVTVL
notes: MPH12 variant; VH and VL only

Target: T1, DS-Cav1 RSV F (respiratory syncytial virus)
T1 construct: also called DC-VCav1
Experiment: ELISA on DS-Cav1 RSV F

Question: How did the EC50 turn out when B1 was run?
Answer: 0.0236 µg/mL

Question: Which EC50 does the source give for B2 here?
Answer: 0.0274 µg/mL

Question: How did the EC50 turn out when B3 was run?
Answer: 0.0249 µg/mL

Question: How did the EC50 turn out when B4 was run?
Answer: 0.0406 µg/mL

Question: For B5, which EC50 is on record?
Answer: 0.051 µg/mL

Question: How did the EC50 turn out when B6 was run?
Answer: 0.0238 µg/mL

Question: With B7 as the binder, how does the EC50 read?
Answer: 0.0508 µg/mL

Question: For B8, which EC50 is on record?
Answer: 0.0358 µg/mL

Question: With B9 as the binder, how does the EC50 read?
Answer: 0.0358 µg/mL

Question: B10 was tested. Which EC50 did it give?
Answer: 0.0258 µg/mL

Question: How did the EC50 turn out when B11 was run?
Answer: 0.0254 µg/mL

Question: With B12 as the binder, how does the EC50 read?
Answer: 0.0397 µg/mL

Question: For B13, which EC50 is on record?
Answer: 0.0153 µg/mL

Question: For B14, which EC50 is on record?
Answer: 0.0349 µg/mL

Question: For B15, which EC50 is on record?
Answer: 0.0368 µg/mL

Question: For B16, which EC50 is on record?
Answer: 0.0438 µg/mL

Question: With B17 as the binder, how does the EC50 read?
Answer: 0.0235 µg/mL

Question: With B18 as the binder, how does the EC50 read?
Answer: 0.031 µg/mL

Question: For B19, which EC50 is on record?
Answer: 0.0241 µg/mL
